Test results as given in US20250066745A1, “MUTANTS AND USE THEREOF” (BGI SHENZHEN, priority 2021, published 2025).

What was measured:
[1] = Luminescence activity assay of purified Gaussia luciferase mutants on coelenterazine derivative ZS2; type: biochemical; parameters: key to Activity of mutant relative to wild-type Gaussia luciferase without the signal peptide: ratio of mutant luminescence intensity to wild-type Gaussia luciferase; conditions: Substrate ZS2 (Table 16)
Experimental: (§1) In this Example, the protein concentration was determined with a BCA quantitative kit (Thermo Scientific™ Pierce™ BCA Protein Assay Kit) accurately. The purified luciferase obtained in Example 5 was diluted with diluent (50 mM Tris-HCl, pH 8.0, 100 mM NaCl, 0.1% (v/v) Tween-20) to 1 μg/mL. The diluted luciferase, taken for 10 μL, was moved into a black 96-well plate, then added with 90 μL of the substrates coelenterazine, fluoro-coelenterazine or coelenterazine derivative ZS2 (purchased from Biolab) which was diluted into 100 μM with the same diluent, and the luminescence intensity of the plate was read with a self-luminescence module of a microplate reader. The mutation site of the mutant, the measured luminescence intensity, the ratio of luminescence intensities of the advantageous mutants to the wild-type Gaussia luciferase without the signal peptide having the sequence shown in SEQ ID NO: 3 are shown in Table 15. The results of catalytic activity assay of the advantageous mutants relative to the wild-type Gaussia luciferase without the signal peptide having the sequence shown in SEQ ID NO: 3 on substrate coelenterazine are shown in FIG. 6. […] The results of catalytic activity assay of the advantageous mutants relative to the wild-type Gaussia luciferase without the signal peptide having the sequence shown in SEQ ID NO: 3 on substrate fluoro-coelenterazine are shown in FIG. 7.
(§2) The new mutant library constructed in Example 7 was screened and tested for substrate specificity. Expression and purification schemes were the same as that in Example 5, and the activity assay scheme was the same as that in Example 6. The respective catalytic activities of combinatorial mutants on coelenterazine, fluoro-coelenterazine or coelenterazine derivative ZS2, and coelenterazine derivative ZS26 (purchased from BIOLAB) were assayed, and comparisons among the substrate specificities of the combinatorial mutants were based on the ratios of catalytic activities on two corresponding substrates.

[2] = Luminescence activity assay of purified Gaussia luciferase mutants on coelenterazine; type: biochemical; parameters: key to Activity of mutant relative to wild-type Gaussia luciferase without the signal peptide: ratio of mutant luminescence intensity to wild-type Gaussia luciferase; conditions: Substrate CTZ (Table 16)
Experimental: as §1, §2

Row | Activity of mutant relative to wild-type Gaussia luciferase without the signal peptide [1] | Activity of mutant relative to wild-type Gaussia luciferase without the signal peptide [2] | Molecule
1 | 0.142 | 0.000 | V29S A30G V31I A32V S33G A36D T37A: Gaussia luciferase mutant (protein, SIGNAL (1)..(17), Gaussia luciferase mutant) MGVKVLFALICIAVAEAKPTENNEDFNISGIVGNFDATDLDADRGKLPGKKLPLEVLKEMEANARKAGCTRGCLICLSHIKCTPKMKKFIPGRCHTYEGDKESAQGGIGEAIVDIPEIPGFKDLEPMEQFIAQVDLCVDCTTGCLKGLANVQCSDLLKKWLPQRCATFASKIQGQVDKIKGAGGD
2 | 0.890 | 0.850 | T167S S170D G174N Q175E K178N A182L: Gaussia luciferase mutant (protein, SIGNAL (1)..(17), Gaussia luciferase mutant) MGVKVLFALICIAVAEAKPTENNEDFNIVAVASNFATTDLDADRGKLPGKKLPLEVLKEMEANARKAGCTRGCLICLSHIKCTPKMKKFIPGRCHTYEGDKESAQGGIGEAIVDIPEIPGFKDLEPMEQFIAQVDLCVDCTTGCLKGLANVQCSDLLKKWLPQRCASFADKIQNEVDNIKGLGGD
3 | 1.504 | 0.864 | E102K S103T E110A: Gaussia luciferase mutant (protein, SIGNAL (1)..(17), Gaussia luciferase mutant) MGVKVLFALICIAVAEAKPTENNEDFNIVAVASNFATTDLDADRGKLPGKKLPLEVLKEMEANARKAGCTRGCLICLSHIKCTPKMKKFIPGRCHTYEGDKKTAQGGIGAAIVDIPEIPGFKDLEPMEQFIAQVDLCVDCTTGCLKGLANVQCSDLLKKWLPQRCATFASKIQGQVDKIKGAGGD
4 | 0.273 | 0.007 | T96P Q163D T167S G174N K178S A182Y G183A: Gaussia luciferase mutant (protein, SIGNAL (1)..(17), Gaussia luciferase mutant) MGVKVLFALICIAVAEAKPTENNEDFNIVAVASNFATTDLDADRGKLPGKKLPLEVLKEMEANARKAGCTRGCLICLSHIKCTPKMKKFIPGRCHPYEGDKESAQGGIGEAIVDIPEIPGFKDLEPMEQFIAQVDLCVDCTTGCLKGLANVQCSDLLKKWLPDRCASFASKIQNQVDSIKGYAGD

Continued, molecule first:

Row | Molecule | Activity of mutant relative to wild-type Gaussia luciferase without the signal peptide [1] | Activity of mutant relative to wild-type Gaussia luciferase without the signal peptide [2]
5 | V29A A30D V31I A32V S33N L40A: Gaussia luciferase mutant (protein, SIGNAL (1)..(17), Gaussia luciferase mutant) MGVKVLFALICIAVAEAKPTENNEDFNIADIVNNFATTDADADRGKLPGKKLPLEVLKEMEANARKAGCTRGCLICLSHIKCTPKMKKFIPGRCHTYEGDKESAQGGIGEAIVDIPEIPGFKDLEPMEQFIAQVDLCVDCTTGCLKGLANVQCSDLLKKWLPQRCATFASKIQGQVDKIKGAGGD | 1.164 | 1.046
6 | F26I A30D A32V S33G A36D T37K L40V: Gaussia luciferase mutant (protein, SIGNAL (1)..(17), Gaussia luciferase mutant) MGVKVLFALICIAVAEAKPTENNEDINIVDVVGNFDKTDVDADRGKLPGKKLPLEVLKEMEANARKAGCTRGCLICLSHIKCTPKMKKFIPGRCHTYEGDKESAQGGIGEAIVDIPEIPGFKDLEPMEQFIAQVDLCVDCTTGCLKGLANVQCSDLLKKWLPQRCATFASKIQGQVDKIKGAGGD | 2.392 | 0.636
7 | F26D N27D V290 A30D V31I S33R T37L: Gaussia luciferase mutant (protein) MGVKVLFALICIAVAEAKPTENNEDDDIVDIARNFALTDLDADRGKLPGKKLPLEVLKEMEANARKAGCTRGCLICLSHIKCTPKMKKFIPGRCHTYEGDKESAQGGIGEAIVDIPEIPGFKDLEPMEQFIAQVDLCVDCTTGCLKGLANVQCSDLLKKWLPQRCATFASKIQGQVDKIKGAGGD | 0.213 | 1.110
8 | F26A N27D V29R A30G A32E S33G A36P L40A: Gaussia luciferase mutant (protein, SIGNAL (1)..(17), Gaussia luciferase mutant) MGVKVLFALICIAVAEAKPTENNEDADIRGVEGNFPTTDADADRGKLPGKKLPLEVLKEMEANARKAGCTRGCLICLSHIKCTPKMKKFIPGRCHTYEGDKESAQGGIGEAIVDIPEIPGFKDLEPMEQFIAQVDLCVDCTTGCLKGLANVQCSDLLKKWLPQRCATFASKIQGQVDKIKGAGGD | 0.684 | 0.034
9 | V29L A30G A32V S33G A36N T37A L40S: Gaussia luciferase mutant (protein, SIGNAL (1)..(17), Gaussia luciferase mutant) MGVKVLFALICIAVAEAKPTENNEDFNILGVVGNFNATDSDADRGKLPGKKLPLEVLKEMEANARKAGCTRGCLICLSHIKCTPKMKKFIPGRCHTYEGDKESAQGGIGEAIVDIPEIPGFKDLEPMEQFIAQVDLCVDCTTGCLKGLANVQCSDLLKKWLPQRCATFASKIQGQVDKIKGAGGD | 1.976 | 0.764
10 | F26G N27Y A30D V31L A32V S33R A36M T37E L40G: Gaussia luciferase mutant (protein, SIGNAL (1)..(17), Gaussia luciferase mutant) MGVKVLFALICIAVAEAKPTENNEDGYIVDLVRNFMETDGDADRGKLPGKKLPLEVLKEMEANARKAGCTRGCLICLSHIKCTPKMKKFIPGRCHTYEGDKESAQGGIGEAIVDIPEIPGFKDLEPMEQFIAQVDLCVDCTTGCLKGLANVQCSDLLKKWLPQRCATFASKIQGQVDKIKGAGGD | 1.203 | 0.003
11 | F26I V29F A30G A32E S33D A36N T37D L40T: Gaussia luciferase mutant (protein, SIGNAL (1)..(17), Gaussia luciferase mutant) MGVKVLFALICIAVAEAKPTENNEDINIFGVEDNFNDTDTDADRGKLPGKKLPLEVLKEMEANARKAGCTRGCLICLSHIKCTPKMKKFIPGRCHTYEGDKESAQGGIGEAIVDIPEIPGFKDLEPMEQFIAQVDLCVDCTTGCLKGLANVQCSDLLKKWLPQRCATFASKIQGQVDKIKGAGGD | 0.000 | 1.120
12 | F26C V29Y S33G A36I T37E L40T: Gaussia luciferase mutant (protein, SIGNAL (1)..(17), Gaussia luciferase mutant) MGVKVLFALICIAVAEAKPTENNEDCNIYAVAGNFIETDTDADRGKLPGKKLPLEVLKEMEANARKAGCTRGCLICLSHIKCTPKMKKFIPGRCHTYEGDKESAQGGIGEAIVDIPEIPGFKDLEPMEQFIAQVDLCVDCTTGCLKGLANVQCSDLLKKWLPQRCATFASKIQGQVDKIKGAGGD | 1.131 | 0.016
13 | F26C V29L A30D V31L A32V S33G L40I: Gaussia luciferase mutant (protein, SIGNAL (1)..(17), Gaussia luciferase mutant) MGVKVLFALICIAVAEAKPTENNEDCNILDLVGNFATTDIDADRGKLPGKKLPLEVLKEMEANARKAGCTRGCLICLSHIKCTPKMKKFIPGRCHTYEGDKESAQGGIGEAIVDIPEIPGFKDLEPMEQFIAQVDLCVDCTTGCLKGLANVQCSDLLKKWLPQRCATFASKIQGQVDKIKGAGGD | 0.312 | 0.000
14 | F26D N27H V29K A30G A32G S33L T37L L40R: Gaussia luciferase mutant (protein, SIGNAL (1)..(17), Gaussia luciferase mutant) MGVKVLFALICIAVAEAKPTENNEDDHIKGVGLNFALTDRDADRGKLPGKKLPLEVLKEMEANARKAGCTRGCLICLSHIKCTPKMKKFIPGRCHTYEGDKESAQGGIGEAIVDIPEIPGFKDLEPMEQFIAQVDLCVDCTTGCLKGLANVQCSDLLKKWLPQRCATFASKIQGQVDKIKGAGGD | 0.381 | 0.037
